The values that follow come from patent publication US20210380688A1 (SHENZHEN UNIVERSITY, published 2021).

The test concerns the target ROR2 mutant with the deletion of the d-Kringle region, flag-tagged (B4) (human, UniProt Q01974 34-943, limits assumed). The test can be described thus: western blot of lysate of transfected 293T cells. From the text: In order to find the epitope bound by the B16 chimeric antibody, flag-tagged mutant plasmids (B1-B8) from different regions of the ROR2 protein were constructed (The Flag tag is a polypeptide fragment composed of eight hydrophilic amino acids […], which can be fused with proteins without occupying protein epitopes or structural domains, avoiding affecting the function, secretion, and transport properties of the protein. The flag tag is used to mark the target protein, if the tag is expressed, the target protein will also be expressed). The plasmid used is pcDNA3.0 plasmid. The full-length sequence of human-derived ROR2 protein includes SP region, Ig-like region, CRD region, Kringle region, Kinase region, S/T1 region, Pro region and S/T2 region. Each part and the corresponding function can refer to Debebe Z, Rathmell W K. Ror2 as a Therapeutic Target in Cancer [J]. Pharmacology & Therapeutics, 2015, 150:143-148. […]
After 48 hours of expression, the cells transfected with mutant plasmids in different regions of ROR2 were lysed. By western blot, the expression of ROR2 protein was detected with B16 chimeric antibody, Flag antibody and Santa Cruz's ROR2 antibody (Cat. No.: sc-374174).
On the technique in general: Immunoblotting shows a protein as a band on a membrane.

Sequence of ROR2 mutant with the deletion of the d-Kringle region, flag-tagged (B4) (Q01974 other isoform, or with tags, fused parts or gaps mutant limits assumed): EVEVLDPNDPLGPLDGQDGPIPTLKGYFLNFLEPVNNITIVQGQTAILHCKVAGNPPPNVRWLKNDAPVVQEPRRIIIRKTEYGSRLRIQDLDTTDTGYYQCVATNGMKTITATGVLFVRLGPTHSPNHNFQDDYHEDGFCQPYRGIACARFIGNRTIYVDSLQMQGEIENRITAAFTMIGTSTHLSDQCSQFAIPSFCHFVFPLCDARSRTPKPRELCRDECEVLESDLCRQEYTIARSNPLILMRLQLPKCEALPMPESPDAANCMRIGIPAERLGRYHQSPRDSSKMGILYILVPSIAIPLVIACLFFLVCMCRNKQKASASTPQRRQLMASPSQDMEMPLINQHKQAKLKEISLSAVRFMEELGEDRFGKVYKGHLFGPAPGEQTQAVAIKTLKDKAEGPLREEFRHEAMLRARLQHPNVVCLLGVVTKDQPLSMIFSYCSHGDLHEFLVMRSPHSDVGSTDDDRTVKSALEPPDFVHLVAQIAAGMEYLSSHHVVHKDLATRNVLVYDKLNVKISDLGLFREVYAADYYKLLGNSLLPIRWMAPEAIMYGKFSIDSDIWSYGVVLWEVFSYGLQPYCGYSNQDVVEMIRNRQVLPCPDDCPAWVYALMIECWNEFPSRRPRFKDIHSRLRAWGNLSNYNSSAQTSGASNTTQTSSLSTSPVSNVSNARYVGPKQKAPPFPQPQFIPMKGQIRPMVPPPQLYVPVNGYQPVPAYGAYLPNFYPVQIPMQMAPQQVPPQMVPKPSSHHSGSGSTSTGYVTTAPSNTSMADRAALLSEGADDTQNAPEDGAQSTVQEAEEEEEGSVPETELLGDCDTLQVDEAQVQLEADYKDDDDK

B1: B16 chimeric antibody (antibody, human IgG1, kappa, V domains shown)
VH: QLQLQQSGPELVKPGASVRMSCKAAGYTFTSYLMHWVKQRPGQDLEWIGYINPYNDGTKYNEKFKDKATLTSDKSSSTVYMELSSLTSEDSAVYYCARSDVYYGVRFAYWGQGTLVTVSA
VL: DIVLTQSPAIMSASPGEKVTMTCSASSSVTYTYWYQQKPGSSPRLLIYDTSNLASGVPVRFSGSGSGTSYSLTISRMEAEDAATYYCQQWSSYPFTFGSGTKLEIKR
notes: also called anti-ROR2 monoclonal antibody B16 chimeric antibody; B16 antibody
On to B1, for which the binding result is “no binding”.
